Measured values reported in patent publication US20100184651.

Tested on: VIP-BH3 BID fusion protein
Sequence (chain, as listed by the source): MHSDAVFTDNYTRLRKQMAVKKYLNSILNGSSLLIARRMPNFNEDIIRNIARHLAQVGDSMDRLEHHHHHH

Sequence of recombinant human cathepsin D (chain, as listed by the source): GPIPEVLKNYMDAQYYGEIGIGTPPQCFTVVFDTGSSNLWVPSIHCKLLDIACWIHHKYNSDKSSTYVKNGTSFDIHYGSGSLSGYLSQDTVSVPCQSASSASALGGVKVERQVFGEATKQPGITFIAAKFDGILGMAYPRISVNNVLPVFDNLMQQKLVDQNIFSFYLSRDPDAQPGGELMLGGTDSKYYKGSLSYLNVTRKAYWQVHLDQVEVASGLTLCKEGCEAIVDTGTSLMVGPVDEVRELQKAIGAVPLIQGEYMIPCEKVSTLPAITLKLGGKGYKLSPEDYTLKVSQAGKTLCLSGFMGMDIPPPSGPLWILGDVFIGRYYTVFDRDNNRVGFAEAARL

recombinant human cathepsin D
cleavage of fusion protein by cathepsin D at ˜400:1 (w/w), followed by mass spectrometry: The first cleavage occurred at the linker by around 30 minutes of treatment with the protease
